The data set deals with the molecule itself. The data set can be described thus: two-colour single-particle tracking.

As a reminder, the koff is a measure of how fast the partners let go of each other. Lower therefore signals slow dissociation. Usually stoichiometry N stands for a count of units in the complex or per binding partner.

B1: pre-B cell receptor (pre-BCR) on the surface of 697 cells (complex)
chain 1: GSASAPTLFPLVSCENSPSDTSSVAVGCLAQDFLPDSITFSWKYKNNSDISSTRGFPSVLRGGKYAATSQVLLPSKDVMQGTDEHVVCKVQHPNGNKEKNVPLPVIAELPPKVSVFVPPRDGFFGNPRKSKLICQATGFSPRQIQVSWLREGKQVGSGVTTDQVQAEAKESGPTTYKVTSTLTIKESDWLGQSMFTCRVDHRGLTFQQNASSMCVPDQDTAIRVFAIPPSFASIFLTKSTKLTCLVTDLTTYDSVTISWTRQNGEAVKTHTNISESHPNATFSAVGEASICEDDWNSGERFTCTVTHTDLPSPLKQTISRPKGVALHRPDVYLLPPAREQLNLRESATITCLVTGFSPADVFVQWMQRGQPLSPEKYVTSAPMPEPQAPGRYFAHSILTVSEEEWNTGETYTCVVAHEALPNRVTERTVDKSTEGEVSADEEGFENLWATASTFIVLFLLSLFYSTTVTLFKVK
chain 2: QPVLHQPPAMSSALGTTIRLTCTLRNDHDIGVYSVYWYQQRPGHPPRFLLRYFSQSDKSQGPQVPPRFSGSKDVARNRGYLSISELQPEDEAMYYCAMGARSSEKEEREREWEEEMEPTAARTRVP
chain 3: LLRPTAASQSRALGPGAPGGSSRSSLRSRWGRFLLQRGSWTGPRCWPRGFQSKHNSVTHVFGSGTQLTVLSQPKATPSVTLFPPSSEELQANKATLVCLMNDFYPGILTVTWKADGTPITQGVEMTTPSKQSNNKYAASSYLSLTPEQWRSRRSYSCQVMHEGSTVEKTVAPAECS
chain 4: LWMHKVPASLMVSLGEDAHFQCPHNSSNNANVTWWRVLHGNYTWPPEFLGPGEDPNGTLIIQNVNKSHGGIYVCRVQEGNESYQQSCGTYLRVRQPPPRPFLDMGEGTKNRIITAEGIILLFCAVVPGTLLLFRKRWQNEKLGLDAGDEYEDENLYEGLNLDDCSMYEDISRGLQGTYQDVGSLNIGDVQLEKP
chain 5: ARSEDRYRNPKGSACSRIWQSPRFIARKRGFTVKMHCYMNSASGNVSWLWKQEMDENPQQLKLEKGRMEESQNESLATLTIQGIRFEDNGIYFCQQKCNNTSEVYQGCGTELRVMGFSTLAQLKQRNTLKDGIIMIQTLLIILFIIVPIFLLLDKDDSKAGMEEDHTYEGLDIDQTATYEDIVTLRTGEVKWSVGEHPGQE
Turning to B1, the koff is 1.14 s⁻¹ and the “stoichiometry N” value is 2.

The values above are taken from paper PMC5385842 (Science signaling, 2016).
